This note sets out measurements from paper PMC7092467, “Transaldolase in Bacillus methanolicus: biochemical characterization and biological role in ribulose monophosphate cycle” (BMC Microbiology, 2020).

In series [1] the target is Recreated full-length transaldolase of Bacillus methanolicus MGA3 (Ta^MGA3rec), C-terminal hexahistidine-tagged (Bacillus methanolicus MGA3). Kind of series: SEC; gel filtration of 1 mg purified Ta dissolved in 2 ml of 20 mM Tris-HCl, pH 7.8, with Ta activity assays of the eluted fractions; eluted in a single fraction corresponding to 54 kDa. (SEC sorts molecules by how far they enter the pores of the column.)

Series [2] concerns the molecule itself. Described as above.
Substrate in the series “purified protein”: O=C[C@H](O)[C@H](O)COP(=O)(O)O
The series can be described thus: purified protein. Type of series: biochemical, Bacillus methanolicus. Particulars: co-substrate F6P, 50 mM Tris-HCl pH 7.8, 50 °C, 0.25 mM NADH.

In turn, “Recreated full-length transaldolase of Bacillus methanolicus MGA3 (Ta^MGA3rec), C-terminal hexahistidine-tagged (enzyme)” showed a stoichiometry N in series [1] of 2.

B1: Transaldolase of Bacillus methanolicus PB1 (Ta^PB1), C-terminal hexahistidine-tagged (enzyme, UniProt I3E1B6 1-229, looked up)
chain: MIQNSIQRNKGGVIIKFFIDTANIDEIREAHSLGILSGVTTNPSLVAKEKNVKFHDRLREIAGLVPGSVSAEVIALDTEGMIKEGRELASIAPNITVKVPMTPESLKAVHALSKEGIKTNVTLIFSANQALLAARAGATYVSPFLGRLDDIGHNGLELISTIADIFAIHQIKTEIIAASIRHPQHVTEAALKGAHIATLPYKVILQLFKHPLTDKGIEAFLADWKKRGQ
notes: Transaldolase (Ta) of Bacillus methanolicus PB1, UniProt I3E1B6; also called PB1 Ta protein; PB1 Ta gene product; source: E. coli BL21 (DE3), pET28b-ta^PB1, purified (Ni-NTA chromatography)
As to B1, the “stoichiometry N” value in series [2] came to 2. Also, in the series “purified protein”, the Km is 2500 µM, the Vmax is recorded as 8.9 U/mg, the kcat was determined as 4 s⁻¹ and the kcat/Km turned out to be 1.6 s^− 1 mM^− 1.

In general, stoichiometry N refers to a count of units in the complex or per binding partner. One may read the Km as the substrate concentration at which the rate is half of its maximum. In general, kcat refers to the maximal rate divided by the concentration of active sites.
